One molecule from article PMC12756210, “Calcium signaling-mediated phosphorylation controls zinc allocation in Arabidopsis” (Stress Biology, 2025) can be followed below.

Assay [1] addresses T1, CIPK26-His (Arabidopsis, UniProt Q84VQ3 1-439).
T1 construct: amplified and cloned into pET30a; Printed both as CIPK3/9/23/26-His and as His-CIPK3/9/23/26, so the end of the tag is open; also called His-CIPK26; source: recombinant, cloned into pET30a
T1 sequence (looked up): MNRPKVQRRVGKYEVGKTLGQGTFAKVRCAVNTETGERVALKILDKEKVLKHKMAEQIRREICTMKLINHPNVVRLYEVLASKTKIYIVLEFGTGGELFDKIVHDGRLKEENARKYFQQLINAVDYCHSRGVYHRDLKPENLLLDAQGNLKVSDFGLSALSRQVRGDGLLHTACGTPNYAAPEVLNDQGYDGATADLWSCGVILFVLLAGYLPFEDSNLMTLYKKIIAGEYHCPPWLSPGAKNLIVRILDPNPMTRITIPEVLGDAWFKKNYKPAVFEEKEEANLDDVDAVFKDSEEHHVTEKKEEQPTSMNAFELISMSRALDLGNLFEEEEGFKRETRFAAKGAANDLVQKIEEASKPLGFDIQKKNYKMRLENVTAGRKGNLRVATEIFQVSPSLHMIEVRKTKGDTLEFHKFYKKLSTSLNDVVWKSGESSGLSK
The assay is described as follows: pull-down; GST-ZIP2-Loop (or GST) on glutathione beads incubated with His-CIPK3/9/23/26; eluate blotted with anti-His antibody. To be noted: both partners purified.

Assay [2] concerns the target T2, CIPK23-His (Arabidopsis, UniProt Q93VD3 1-482).
T2 construct: amplified and cloned into pET30a; Printed both as CIPK3/9/23/26-His and as His-CIPK3/9/23/26, so the end of the tag is open; also called His-CIPK23; source: recombinant, cloned into pET30a
T2 sequence (looked up): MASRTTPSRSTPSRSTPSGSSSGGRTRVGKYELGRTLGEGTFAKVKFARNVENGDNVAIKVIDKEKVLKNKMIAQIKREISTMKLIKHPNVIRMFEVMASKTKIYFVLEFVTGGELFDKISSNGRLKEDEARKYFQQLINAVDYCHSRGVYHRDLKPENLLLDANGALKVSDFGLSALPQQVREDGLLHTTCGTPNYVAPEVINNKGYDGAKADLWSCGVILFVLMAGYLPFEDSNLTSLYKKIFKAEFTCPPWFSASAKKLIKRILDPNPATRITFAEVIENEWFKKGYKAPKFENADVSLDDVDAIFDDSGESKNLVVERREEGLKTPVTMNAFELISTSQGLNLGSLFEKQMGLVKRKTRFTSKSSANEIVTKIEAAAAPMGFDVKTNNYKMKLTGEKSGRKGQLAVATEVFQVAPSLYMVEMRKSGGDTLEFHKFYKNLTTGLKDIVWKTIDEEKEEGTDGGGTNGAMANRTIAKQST
Described as above. To be noted: both partners purified.

B1: GST-ZIP2-Loop (domain or fragment, Arabidopsis, UniProt Q9LTH9 151-203, looked up)
chain: VAAGSNNNHVGASVGESREDDDVAVKEEGRREIKSGVDVSQALIRTSGFGDTA
notes: Zn transporter ZIP2, Arabidopsis; the largest Loop domain, residues 151-203 (451-609 bp of the CDS); Printed as GST-ZIP2-Loop and as ZIP2-Loop-GST; pGEX4T-1 normally places GST at the N-terminus (surmised); also called ZIP2-Loop-GST; source: prokaryotic fusion protein (pGEX4T-1), purified
Regarding B1, the binding result in assay [1] and in assay [2] was “binds” in each case.
